Measurements as given in US6699677 (CHEMOCENTRYX, dated 2004).

Tests used:
[1] = target: T1, CCR4 on CEM cells (UniProt P51679 1-360, limits assumed); assay: displacement of radiolabeled MDC or TARC from CEM cells expressing CCR4 by stalkokine supernatant
T1 construct: whole, on cells; also called CEM cells expressing CCR4; CEM cells that express CCR4
T1 sequence (looked up): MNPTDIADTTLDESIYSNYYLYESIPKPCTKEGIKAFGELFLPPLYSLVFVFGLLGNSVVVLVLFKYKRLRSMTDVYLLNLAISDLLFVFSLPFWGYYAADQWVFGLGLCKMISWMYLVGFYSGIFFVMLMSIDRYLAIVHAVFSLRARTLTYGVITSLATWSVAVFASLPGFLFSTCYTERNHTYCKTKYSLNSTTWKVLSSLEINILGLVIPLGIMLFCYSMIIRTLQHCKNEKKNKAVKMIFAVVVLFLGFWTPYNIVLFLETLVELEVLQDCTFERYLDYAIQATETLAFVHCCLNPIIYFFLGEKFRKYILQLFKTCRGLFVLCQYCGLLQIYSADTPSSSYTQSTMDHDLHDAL

[2] = target: T2, CCR4 on transfected mouse myeloma NSO cells (UniProt P51679 1-360, limits assumed); assay: adhesion of receptor-expressing NSO cells to immobilized stalkokine
T2 construct: whole, on cells; also called CCR4-NSO; CCR4 NSO cells
T2 sequence (looked up): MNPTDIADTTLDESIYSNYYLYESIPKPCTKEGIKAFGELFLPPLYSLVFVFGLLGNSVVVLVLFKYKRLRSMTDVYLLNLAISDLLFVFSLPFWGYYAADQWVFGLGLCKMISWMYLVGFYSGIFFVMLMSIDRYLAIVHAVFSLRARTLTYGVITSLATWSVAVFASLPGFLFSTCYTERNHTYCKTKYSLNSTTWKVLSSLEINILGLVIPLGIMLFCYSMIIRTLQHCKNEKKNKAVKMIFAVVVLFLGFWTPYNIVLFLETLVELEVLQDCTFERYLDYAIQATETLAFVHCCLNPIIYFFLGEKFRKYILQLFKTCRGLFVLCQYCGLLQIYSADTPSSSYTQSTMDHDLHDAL

[3] = target: T3, human CCR10 (CCX CKR) with N-terminal FLAG epitope, stably expressed on HEK293 cells (human, UniProt Q9NPB9 1-350); assay: homologous competition, radiolabeled TECK with cold TECK on cells
T3 construct: also called HEK293-CCR10 cells; CCR10-expressing cells
T3 sequence: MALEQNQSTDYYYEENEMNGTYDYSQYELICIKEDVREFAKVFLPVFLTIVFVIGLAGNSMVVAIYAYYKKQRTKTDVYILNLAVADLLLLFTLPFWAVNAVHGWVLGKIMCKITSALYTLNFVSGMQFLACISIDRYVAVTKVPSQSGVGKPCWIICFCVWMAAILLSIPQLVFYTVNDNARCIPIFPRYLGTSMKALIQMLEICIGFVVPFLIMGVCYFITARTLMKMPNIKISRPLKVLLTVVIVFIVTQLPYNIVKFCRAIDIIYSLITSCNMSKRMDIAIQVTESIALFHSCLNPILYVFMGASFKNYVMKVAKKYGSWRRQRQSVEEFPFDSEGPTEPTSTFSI

[4] = target: T4, CCR1 on transfected mouse myeloma NSO cells (UniProt P32246 1-355, limits assumed); assay: adhesion of receptor-expressing NSO cells to immobilized stalkokine
T4 construct: whole, on cells; also called CCR1-NSO
T4 sequence (looked up): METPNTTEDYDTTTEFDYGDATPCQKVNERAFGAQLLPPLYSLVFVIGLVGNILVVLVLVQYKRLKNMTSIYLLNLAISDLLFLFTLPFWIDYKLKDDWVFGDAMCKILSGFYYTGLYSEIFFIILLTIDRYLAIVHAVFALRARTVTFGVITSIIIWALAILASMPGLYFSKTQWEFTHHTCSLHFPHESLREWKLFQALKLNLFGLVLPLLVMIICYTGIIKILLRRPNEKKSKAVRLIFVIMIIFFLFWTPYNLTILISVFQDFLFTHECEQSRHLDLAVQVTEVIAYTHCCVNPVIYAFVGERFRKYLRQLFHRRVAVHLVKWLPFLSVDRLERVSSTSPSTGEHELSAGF

[5] = target: T5, CCR7 on transfected mouse myeloma NSO cells (UniProt P32248 25-378, limits assumed); assay: as above
T5 construct: whole, on cells; also called CCR7-NSO
T5 sequence (looked up): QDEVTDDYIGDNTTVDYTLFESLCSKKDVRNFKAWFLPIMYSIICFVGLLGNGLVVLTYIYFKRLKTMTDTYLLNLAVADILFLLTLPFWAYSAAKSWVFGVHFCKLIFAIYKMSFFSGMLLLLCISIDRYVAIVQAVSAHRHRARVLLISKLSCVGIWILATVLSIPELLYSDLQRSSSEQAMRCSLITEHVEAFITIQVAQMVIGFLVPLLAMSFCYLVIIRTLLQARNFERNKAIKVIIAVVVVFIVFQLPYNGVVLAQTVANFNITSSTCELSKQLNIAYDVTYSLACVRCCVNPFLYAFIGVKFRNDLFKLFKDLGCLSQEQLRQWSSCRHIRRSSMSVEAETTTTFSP

[6] = target: T1, CCR4 on CEM cells; assay: displacement of radiolabeled MDC or TARC from CEM cells expressing CCR4 by soluble MDC
[7] = target: T2, CCR4 on transfected mouse myeloma NSO …; assay: preincubation of CCR4-NSO cells with 10 ug/ml soluble chemokine, then adhesion to immobilized MDC-FRAC or TARC-FRAC
[8] = target: T3, human CCR10 (CCX CKR) with N-terminal …; assay: summary of Example 1; assay for this ligand not described
[9] = target: T6, CCR8 on transfected mouse myeloma NSO cells (UniProt P51685 1-355, limits assumed); assay: adhesion of receptor-expressing NSO cells to immobilized stalkokine
T6 construct: whole, on cells; also called CCR8-NSO

[10] = target: T3, human CCR10 (CCX CKR) with N-terminal …; assay: adhesion of HEK293-CCR10 cells to stalkokine immobilized via anti-His antibody on chamber slides
[11] = target: T3, human CCR10 (CCX CKR) with N-terminal …; assay: homologous competition, radiolabeled ELC with increasing unlabeled ELC on cells

T6 sequence (P51685 whole entry): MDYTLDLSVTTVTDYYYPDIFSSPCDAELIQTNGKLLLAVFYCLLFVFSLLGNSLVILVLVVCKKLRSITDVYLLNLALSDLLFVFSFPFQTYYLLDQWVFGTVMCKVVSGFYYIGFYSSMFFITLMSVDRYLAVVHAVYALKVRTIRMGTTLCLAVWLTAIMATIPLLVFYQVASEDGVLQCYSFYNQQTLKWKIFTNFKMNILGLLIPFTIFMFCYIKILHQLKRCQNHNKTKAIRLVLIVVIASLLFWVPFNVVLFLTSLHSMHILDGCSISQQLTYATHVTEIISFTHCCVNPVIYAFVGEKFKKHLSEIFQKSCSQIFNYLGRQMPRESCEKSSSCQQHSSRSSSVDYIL

B1: MDC-FRAC (stalkokine with a fractalkine stalk and an MDC ligand domain) (ligand, human, not shown: small tags and cut ends)
chain: GPYGANMEDSVCCRDYVRYRLPLRVVKHFYWTSDSCPRPGVVLLTFRDKEICADPRVPWVKMILNKLSQEFGGTFEKQIGEVKPRTTPAAGGMDESVVLEPEATGESSSLEPTPSSQEAQRALGTSPELPTGVTGSSGTRLPPTPKAQDGGPVGTELFRVPPVSTAATWQSSAPHQPGPSLWAEAKTSEAPSTQDPSTQASTASSPAPEENAPSEGQRVWGQGQSPRPENSLEREEMGPVPAHTDAFQDWGPGSMAHVSVVPVSSEGTPSREPVASGSWTPKAEEPIHATMDPQRLGVLITPVPDAQA
notes: mature; Used as cell supernatant, soluble (displacement, calcium flux) or immobilized through anti-His antibody (adhesion); also called MDC-SK; MDC-Stalkokine
B1: binds [1]; binds [2].

B2: TECK, soluble recombinant native form chemokine (ligand, UniProt O15444 24-150, looked up)
chain: QGVFEDCCLAYHYPIGWAVLRRAWTYRIQEVSGSCNLPAAIFYLPKRHRKVCGNPKSREVQRAMKLLDARNKVFAKLHHNTQTFQAGPHAVKKLSSGNSKLSSSKFSNPISSSKRNVSLLISANSGL
notes: mature; Tracer was 125I-labeled TECK from Amersham; also called soluble TECK; cold TECK
B2: binds [3].

B3: MCP3-FRAC (MCP3 stalkokine) (ligand)
chain: not shown
notes: mature; also called MCP3 (stalkokine form); MCP3 tethered ligand; not shown: polylinker residues
B3: binds [4].

B4: SLC-FRAC (SLC stalkokine) (ligand, human, not shown: small tags and cut ends)
chain: SDGGAQDCCLKYSQRKIPAKVVRSYRKQEPSLGCSIPAILFLPRKRSQAELCADPKELWVQQLMQHLDKTPSPQKPAQGCRKDRGASKTGKKGKGSKGCKRTERSQTPKGPEFGGTFEKQIGEVKPRTTPAAGGMDESVVLEPEATGESSSLEPTPSSQEAQRALGTSPELPTGVTGSSGTRLPPTPKAQDGGPVGTELFRVPPVSTAATWQSSAPHQPGPSLWAEAKTSEAPSTQDPSTQASTASSPAPEENAPSEGQRVWGQGQSPRPENSLEREEMGPVPAHTDAFQDWGPGSMAHVSVVPVSSEGTPSREPVASGSWTPKAEEPIHATMDPQRLGVLITPVPDAQA
notes: mature; also called SLC (stalkokine form); 6Ckine
B4: no binding [5].

B5: MDC, soluble chemokine (ligand, human, UniProt O00626 25-93, looked up)
chain: GPYGANMEDSVCCRDYVRYRLPLRVVKHFYWTSDSCPRPGVVLLTFRDKEICADPRVPWVKMILNKLSQ
notes: Also used radiolabeled as tracer on CEM cells; also called MDC-CK; soluble MDC
B5: binds [6]; binds [7].

B6: TARC-FRAC (stalkokine with a fractalkine stalk and a TARC ligand domain) (ligand, human, not shown: small tags and cut ends)
chain: ARGTNVGRECCLEYFKGAIPLRKLKTWYQTSEDCSRDAIVFVTVQGRAICSDPNNKRVKNAVKYLQSLERSEFGGTFEKQIGEVKPRTTPAAGGMDESVVLEPEATGESSSLEPTPSSQEAQRALGTSPELPTGVTGSSGTRLPPTPKAQDGGPVGTELFRVPPVSTAATWQSSAPHQPGPSLWAEAKTSEAPSTQDPSTQASTASSPAPEENAPSEGQRVWGQGQSPRPENSLEREEMGPVPAHTDAFQDWGPGSMAHVSVVPVSSEGTPSREPVASGSWTPKAEEPIHATMDPQRLGVLITPVPDAQA
notes: mature; Used as cell supernatant, soluble (displacement, calcium flux) or immobilized through anti-His antibody (adhesion); also called TARC-SK; TARC-Stalkokine
B6: binds [1]; binds [2].

B7: vMIPII (ligand)
chain: GDTLGASWHRPDKCCLGYQKRPLPQVLLSSWYPTSQLCSKPGVIFLTKRGRQVCADKSKDWVKKLMQQLPVTAR
B7: binds [8].

B8: I309-FRAC (I309 stalkokine) (ligand, human, not shown: small tags and cut ends)
chain: KSMQVPFSRCCFSFAEQEIPLRAILCYRNTSSICSNEGLIFKLKRGKEACALDTVGWVQRHRKMLRHCPSKRKEFGGTFEKQIGEVKPRTTPAAGGMDESVVLEPEATGESSSLEPTPSSQEAQRALGTSPELPTGVTGSSGTRLPPTPKAQDGGPVGTELFRVPPVSTAATWQSSAPHQPGPSLWAEAKTSEAPSTQDPSTQASTASSPAPEENAPSEGQRVWGQGQSPRPENSLEREEMGPVPAHTDAFQDWGPGSMAHVSVVPVSSEGTPSREPVASGSWTPKAEEPIHATMDPQRLGVLITPVPDAQA
notes: mature; also called I309 (stalkokine form); 1309-FRAC
B8: binds [9].

B9: ELC-stalkokine (ELC ligand domain, human fractalkine mucin stalk, myc epitope and poly-histidine) (ligand, not shown: small tags and cut ends)
chain: GTNDAEDCCLSVTQKPIPGYIVRNFHYLLIKDGCRVPAVVFTTLRGRQLCAPPDQPWVERIIQRLQRTSAKMKRRSSEFGGTFEKQIGEVKPRTTPAAGGMDESVVLEPEATGESSSLEPTPSSQEAQRALGTSPELPTGVTGSSGTRLPPTPKAQDGGPVGTELFRVPPVSTAATWQSSAPHQPGPSLWAEAKTSEAPSTQDPSTQASTASSPAPEENAPSEGQRVWGQGQSPRPENSLEREEMGPVPAHTDAFQDWGPGSMAHVSVVPVSSEGTPSREPVASGSWTPKAEEPIHATMDPQRLGVLITPVPDAQA
notes: mature; also called ELC-SK; ELC-FRAC
B9: binds [10]; binds [5].

B10: TARC, soluble chemokine (ligand, human, UniProt Q92583 24-94, looked up)
chain: ARGTNVGRECCLEYFKGAIPLRKLKTWYQTSEDCSRDAIVFVTVQGRAICSDPNNKRVKNAVKYLQSLERS
notes: Also used radiolabeled as tracer on CEM cells; also called soluble TARC; radiolabeled TARC
B10: binds [7].

B11: ELC, soluble recombinant native form chemokine (ligand, UniProt Q99731 22-98, looked up)
chain: GTNDAEDCCLSVTQKPIPGYIVRNFHYLLIKDGCRVPAVVFTTLRGRQLCAPPDQPWVERIIQRLQRTSAKMKRRSS
notes: mature; also called soluble ELC; soluble native ELC
B11: binds [11].
